Test results as given in IntAct's records for PubMed 15078334.

B1: Guanine nucleotide-binding protein alpha-1 subunit (Oryza sativa subsp. japonica (Rice)), Q0DJ33 (parent)
chain: MGSSCSRSHSLSEAETTKNAKSADIDRRILQETKAEQHIHKLLLLGAGESGKSTIFKQIKLLFQTGFDEAELRSYTSVIHANVYQTIKILYEGAKELSQVESDSSKYVISPDNQEIGEKLSDIDGRLDYPLLNKELVLDVKRLWQDPAIQETYLRGSILQLPDCAQYFMENLDRLAEAGYVPTKEDVLYARVRTNGVVQIQFSPVGENKRGGEVYRLYDVGGQRNERRKWIHLFEGVNAVIFCAAISEYDQMLFEDETKNRMMETKELFDWVLKQRCFEKTSFILFLNKFDIFEKKIQKVPLSVCEWFKDYQPIAPGKQEVEHAYEFVKKKFEELYFQSSKPDRVDRVFKIYRTTALDQKLVKKTFKLIDESMRRSREGT
partner: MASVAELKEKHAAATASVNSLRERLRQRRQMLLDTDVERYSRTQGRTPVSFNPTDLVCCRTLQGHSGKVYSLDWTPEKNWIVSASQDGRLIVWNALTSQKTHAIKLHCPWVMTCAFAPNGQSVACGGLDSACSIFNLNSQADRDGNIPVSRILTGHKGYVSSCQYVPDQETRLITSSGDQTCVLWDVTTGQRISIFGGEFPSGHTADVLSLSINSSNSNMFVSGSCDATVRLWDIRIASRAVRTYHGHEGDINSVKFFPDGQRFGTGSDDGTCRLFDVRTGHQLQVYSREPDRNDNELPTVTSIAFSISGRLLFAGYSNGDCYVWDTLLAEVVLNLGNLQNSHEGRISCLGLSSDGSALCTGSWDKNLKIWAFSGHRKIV

Variants of: B1
Conditions: with gbb_orysj RGB1, Q40687

MGSSCSRSHSLSEAETTKNAKSADIDRRILQETKAEQHIHKLLLLGAGESGKSTIFKQIKLLFQTGFDEAELRSYTSVIHANVYQTIKILYEGAKELSQVESDSSKYVISPDNQEIGEKLSDIDGRLDYPLLNKELVLDVKRLWQDPAIQETYLRGSILQLPDCAQYFMENLDRLAEAGYVPTKEDVLYARVRTNGVVQIQFSPVGENKRGGEVYRLYDVGGLRNERRKWIHLFEGVNAVIFCAAISEYDQMLFEDETKNRMMETKELFDWVLKQRCFEKTSFILFLNKFDIFEKKIQKVPLSVCEWFKDYQPIAPGKQEVEHAYEFVKKKFEELYFQSSKPDRVDRVFKIYRTTALDQKLVKKTFKLIDESMRRSREGT [Q223L] was tested. Which “effect of a mutation on the interaction” value did it give?
The value was “disrupting interaction”.
